In the supplement of paper PMC9170038:

Tested on: MS2 coat protein
Assay: apparent KD of MS2 coat protein; designed switch direction (-1 OFF switch, 1 ON switch): -1; higher = weaker reporter binding
How it was run: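 Each step of the titration lasted 0.8–1.5 h at the lowest concentration and 10–20 min at the highest. The protein, SNAP-549-labelled MS2 coat protein, went from 0.7 or 1.5 nM doubling to 3 µM over RNA switches transcribed on Illumina chips by stalled E. coli RNA polymerase. Normalised cluster fluorescence was curve-fitted, and the per-design median over clusters is given as apparent KD.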

[1] = input ligand: microRNA oligo, concentration not stated
[2] = Eterna round: R95, input ligand: microRNA oligo, concentration not stated
[3] = Eterna round: R95, input ligand: FMN 200 uM
[4] = Eterna round: R95, input ligand: none

Sequence | apparent KD of MS2 coat protein (input ligand: FMN 200 uM) | apparent KD of MS2 coat protein [1] | apparent KD of MS2 coat protein (input ligand: none) | apparent KD of MS2 coat protein [2] | apparent KD of MS2 coat protein [3] | apparent KD of MS2 coat protein [4]
GCACGGAUGGUAGGAUAUCCUUGCGAUUAGCAAGGAGAAGGACCACAUGAGGAUCACCCAUGUACCUCAAUUAUCCUUCCGUGC [Eli exng1 - 023] (Eterna round: R96, puzzle: Exclusion NG 1) | 12.7 nM | 9.18 nM | 15.8 nM | – | – | –
ACUUAUUGAGGAUAUACAUUAAAUUACAUGAGGAUCACCCAUGUUCUUCAAUGUAUAUAUGUAGAAGGCAGAAGAU [Mat - Exclusion 5 - JL Mod - D20] (Eterna round: R97, puzzle: Exclusion 5) | 18.2 nM | – | 14.4 nM | – | – | –
GUCAGCUCGUGAGGAUAUGCACAUGAGGAUCACCCAUGUAAGAUCAAGCUGCUUCGGCAGCAAGUGCAGAAGGUACGAGCUGAC [ENG2/9-C1] (Eterna round: R96, puzzle: Exclusion NG 2) | 200 nM | 207 nM | 297 nM | – | – | –
GGGCCACAUGAGGAUCACCCAUGUGAGGAUAUCAUGCUUCGUAGUAAACUACGAAGUGUGAGAAGGCACAAUGG [Omei Ex1 C9] (Eterna round: R97, puzzle: Exclusion 1) | 444 nM | – | 143 nM | – | – | –
CGCGCCUGGGUCGAACGACACAUGAGGAUCACCCAUGUCAGAGGCGUAGAAUGCACAAGCUUUGACCUCGUUACGCU [Eternabot (L2) Solution 39] (Eterna round: R97, puzzle: Sensor, turn-off variant 1) | 18 nM | – | 18.5 nM | – | – | –
AAACAACAUGAGGAUCACCCAUGUAAGGAUAUGCGAGUUGGGUCAACGAAGGUUGAAGGCAGAAGGUAUAGGGU [Erxevees] (puzzle: Exclusion 1) | – | – | – | 49.3 nM | – | –
UUGGUUAUCUAUGGGAGUAACAUGAGGAUCACCCAUGUAUGUCUUGUUUUUUGUUCGUCAUAGGCCUUUUGUUUGGA [JR_SV3TOV1_Sub024] (puzzle: Sensor v3, turn-off variant 1) | – | – | – | 35 nM | 28.6 nM | 29.8 nM
CUGUACUGAGGAUAUACAUGAGGAUCACCCAUGUGCUUCAGCUAGGAAACUAGCAAAGGUAGAAGGCAGUACAG [Mat - Exclusion 3 - Eli Mod - D58] (Eterna round: R97, puzzle: Exclusion 3) | 109 nM | – | 14.5 nM | – | – | –
UCAUGUUUAGAGGAUAUGAUUACUUUUGAGUAAUCAGAAGGCUAGACAUGAGGAUCACCCAUGUCAUAACAUGA [Exclusion 6 - B - 15:d] (Eterna round: R96, puzzle: Exclusion 6) | 341 nM | 75.9 nM | 242 nM | – | – | –
ACAUGAGGAUCACCCAUGUGCACGUAAUGGCUCAUGUAGAGUGAGGAUAUGCGUGGCGAACUCGCGCAGAAGGCACAAGACUGG [Deportation 19 - Jieux - Exclusion NG 3] (Eterna round: R96, puzzle: Exclusion NG 3) | 88.8 nM | 65.9 nM | 82.5 nM | – | – | –
UUUUUAUAUGAAGGAUAUACUUAACAUGAGGAUCACCCAUGUGGUGUUGUGAGUGAGUGAGUUUAGUAGAAGGUCAAUGAUUUA [JMF's solution 62] (Eterna round: R96, puzzle: Exclusion NG 2) | 1210 nM | 414 nM | 354 nM | – | – | –
GUUAAGGUAGGAUAUACGAUAAUAUAGGGUAGAUAUAGAACACAUGAGGAUCACCCAUGUAGAAGGACCAAUUG [Mat - Exclusion 2 - Mod of my Tesla design - D54] (puzzle: Exclusion 2) | – | – | – | 28.6 nM | – | –
CUUUACAUGCUAAGAUCCUACAUGAGGAUCACCCAUGUGGUCCGGUGACGUGAGUCACCGGACUUAGCUCGUCUUGU [salish99_S_TOV1_R5_097] (Eterna round: R97, puzzle: Sensor, turn-off variant 1) | 83.2 nM | – | 119 nM | – | – | –
GCCGCUCACGAGGAUAUGGUGGAAAAGCCUUUGCUAGAAGGCGUGACAUGAGGAUCACCCAUGUAGGCACAUGA [Eternabot (L1) Solution 85] (Eterna round: R97, puzzle: Exclusion 6) | 24.9 nM | – | 30.4 nM | – | – | –
UUUAAAACAUAGGAUAUCGAAAUUAUCAUUUAACGAGAAGGAUGAACAUGAGGAUCACCCAUGUGGUAUCAUGG [Mat - Exclusion 6 - JL Mod - D17] (puzzle: Exclusion 6) | – | – | – | 184 nM | 202 nM | 123 nM
AUAAAACGUGUAGGAUAUGCGUGGCGAAGCUAUGCAGAAGGACAUGAGGAUCACCCAUGUUCUAGCGUCUGCGUACAGAUGCUA [JL eng1 1.35 mod 4] (Eterna round: R96, puzzle: Exclusion NG 1) | 18.2 nM | 10.9 nM | 14.8 nM | – | – | –
GAGAGAAUCUAGGAUAUAUCAAGAGAAGGAGAGAUAGAAGGAGAGACAUGAGGAUCACCCAUGUCUUCGUGUAG [Default title] (Eterna round: R97, puzzle: Exclusion 6) | 16.6 nM | – | 15.8 nM | – | – | –
ACAUGAGGCGAAGGAUAUCUUUAGAGGAUUACCAGAGAAGGUCGACAUGAGGAUCACCCAUGUACAUGAGGGUCUUGAAUGUUA [9th something] (Eterna round: R96, puzzle: Exclusion NG 1) | 245 nM | 199 nM | 250 nM | – | – | –
CUUCACCCACCAGAGCUCACCCACAUACCAGCUCUGGUGACAUGAGGAUCACCCAUGUUUUUUGCCCGUCUUAUCUU [Intibima] (puzzle: Sensor v3, turn-off variant 2) | – | – | – | 189 nM | 41.3 nM | 46.8 nM
GUGAUCUAUCAUGUAAUGAACAUGAGGAUCACCCAUGUAGGCAGGUUUUUUGCUCGUCACAUAAUAAGAUAGAUCAC [Antenna 20 - Jieux - Sensor, turn-off variant 1] (Eterna round: R97, puzzle: Sensor, turn-off variant 1) | 18.6 nM | – | 24.2 nM | – | – | –
UUAAUUAAUUAAUUAUAAGAUCAACAUGAGGAUCACCCAUGUGAGGAUAUCAGCUCGAUUAGAGCUGAGAAGGCACAAAUAAUU [ExNG3/16-B1] (Eterna round: R96, puzzle: Exclusion NG 3) | 147 nM | 53.6 nM | 44 nM | – | – | –
AAUAACAGAGGAUAUACUAUUUUAUGUGUUUAUUGUUUUAAACAUGAGGAUCACCCAUGUAGAAGGCUGAAUAA [JMF 16] (puzzle: Exclusion 2) | – | – | – | 26.8 nM | – | –
GGAUCGAGUGUGAGGAUAUACCUAUGGAAACAUAGGUAGAAGGCACAUGAGGAUCACCCAUGUUCCAACGGUCC [Mat - Exclusion 4 - Eli Mod - D11] (Eterna round: R97, puzzle: Brourd's mod of Exclusion 4) | 715 nM | – | 90.6 nM | – | – | –
ACGGCUGAAGGAUAUGCAGUGACCACAAAGGUAUGACUAUCACAUGAGGAUCACCCAUGUAGAAGGUCGGCGCC [Eternabot (L2) Solution 29] (Eterna round: R97, puzzle: Exclusion 2) | 13.6 nM | – | 14.4 nM | – | – | –
